Assay in all cases: EMSA
Background: A gel shift assay detects complexes by their altered migration in electrophoresis.

The target of one series is T1, CrebA full-length (Drosophila melanogaster, UniProt P29747 1-516).
T1 sequence: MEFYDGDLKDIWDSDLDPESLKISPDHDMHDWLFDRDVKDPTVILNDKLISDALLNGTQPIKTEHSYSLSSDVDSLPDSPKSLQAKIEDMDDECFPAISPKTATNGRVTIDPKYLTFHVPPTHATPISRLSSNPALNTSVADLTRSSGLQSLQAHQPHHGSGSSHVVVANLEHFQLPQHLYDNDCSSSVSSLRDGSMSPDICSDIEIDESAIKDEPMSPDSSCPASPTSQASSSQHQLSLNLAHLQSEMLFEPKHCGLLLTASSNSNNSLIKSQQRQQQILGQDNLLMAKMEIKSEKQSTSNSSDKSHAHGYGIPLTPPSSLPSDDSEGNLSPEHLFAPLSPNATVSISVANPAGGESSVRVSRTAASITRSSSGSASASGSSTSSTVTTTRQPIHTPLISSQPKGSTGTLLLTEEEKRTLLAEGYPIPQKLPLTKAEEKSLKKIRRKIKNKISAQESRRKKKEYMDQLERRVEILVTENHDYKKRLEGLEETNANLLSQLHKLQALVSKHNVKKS

For series [1], the target named is T2, GST-Rib-PSQ DNA-binding domain (Drosophila melanogaster, UniProt Q7KF43 363-414).
T2 sequence: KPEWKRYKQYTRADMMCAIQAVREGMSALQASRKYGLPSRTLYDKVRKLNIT

A further series concerns the target T3, Ribbon (Rib) full-length (Drosophila melanogaster, UniProt Q7KF43 1-661).
T3 sequence: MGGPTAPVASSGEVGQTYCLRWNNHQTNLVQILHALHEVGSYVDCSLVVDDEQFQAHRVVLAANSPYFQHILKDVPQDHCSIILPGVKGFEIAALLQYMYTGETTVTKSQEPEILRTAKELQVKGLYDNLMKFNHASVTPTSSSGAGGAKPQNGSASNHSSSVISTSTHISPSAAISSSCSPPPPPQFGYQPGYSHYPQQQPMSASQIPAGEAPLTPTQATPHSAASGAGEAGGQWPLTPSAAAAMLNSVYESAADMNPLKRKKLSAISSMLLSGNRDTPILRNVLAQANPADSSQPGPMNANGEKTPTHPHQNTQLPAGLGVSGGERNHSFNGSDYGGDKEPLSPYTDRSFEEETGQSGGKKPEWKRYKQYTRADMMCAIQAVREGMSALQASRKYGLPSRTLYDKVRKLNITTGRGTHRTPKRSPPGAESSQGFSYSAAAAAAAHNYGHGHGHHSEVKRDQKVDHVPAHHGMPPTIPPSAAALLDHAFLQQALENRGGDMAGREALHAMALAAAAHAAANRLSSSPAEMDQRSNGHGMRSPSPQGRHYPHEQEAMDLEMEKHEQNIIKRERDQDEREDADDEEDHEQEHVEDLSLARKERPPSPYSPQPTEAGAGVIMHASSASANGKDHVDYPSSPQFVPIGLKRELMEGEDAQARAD

B1: TSN-2 (dsDNA)
DNA 1: ATCTGATTTGGTGACGTTGGCACCCTGCA
DNA 2: TGCAGGGTGCCAACGTCACCAAATCAGAT
Take B1: the binding result with CrebA full-length is listed as “binds”.

B2: RpS18 (dsDNA)
DNA 1: GGCAGCCACATTAATTCGGCCTTCTTTTCTTTTCCCGTTTCCGGTGAGTG
DNA 2: CACTCACCGGAAACGGGAAAAGAAAAGAAGGCCGAATTAATGTGGCTGCC
Consider B2, for which the binding result (in series [1]; with Ribbon (Rib) full-length) was “binds” in each case.

B3: RpS10b (dsDNA)
DNA 1: ATCCCTTCCGTTTCCCTTTCTTTTCGTCTTCACGTTTCCGGTGAGTGCGT
DNA 2: ACGCACTCACCGGAAACGTGAAGACGAAAAGAAAGGGAAACGGAAGGGAT
In the case of B3, the binding result (in series [1]; with Ribbon (Rib) full-length) was “binds” in each case.

B4: RpL11 (dsDNA)
DNA 1: CGCGGCCACACTATCCTTTCCTTCTTTTCTTACAAGTTTCCGGTGAGTGC
DNA 2: GCACTCACCGGAAACTTGTAAGAAAAGAAGGAAAGGATAGTGTGGCCGCG
Consider B4, for which the binding result (in series [1]; with Ribbon (Rib) full-length) was “binds” throughout.

B5: RpL19 (dsDNA)
DNA 1: TTCCGGCTGTCAAATTTTTCTTTCTTTCCTAGCCACGACGAGGTCGACAG
DNA 2: CTGTCGACCTCGTCGTGGCTAGGAAAGAAAGAAAAATTTGACAGCCGGAA
Consider B5, for which the binding result (in series [1]; with Ribbon (Rib) full-length) was “binds” in each case.

B6: RpL6 (dsDNA)
DNA 1: CCCTGGTCACACCGCTCTAGACATAACCTTCCTTTTCCAATAATTTTTGT
DNA 2: ACAAAAATTATTGGAAAAGGAAGGTTATGTCTAGAGCGGTGTGACCAGGG
On to B6, for which the binding result (in series [1]; with Ribbon (Rib) full-length) was “binds” in each case.

B7: RpS3 (dsDNA)
DNA 1: AACGTGTCTCGCGCGGGCACACTGGCCTCTTTCTTTTCTGCGCACCACGT
DNA 2: ACGTGGTGCGCAGAAAAGAAAGAGGCCAGTGTGCCCGCGCGAGACACGTT
As to B7, the binding result (in series [1]; with Ribbon (Rib) full-length) was “binds” each time.

B8: RpL17 (dsDNA)
DNA 1: ACTGCCATTTCCTTTCTTTTTCGTTCCACGTTTCCGGTGAGTGCATGTGC
DNA 2: GCACATGCACTCACCGGAAACGTGGAACGAAAAAGAAAGGAAATGGCAGT
As for B8, the binding result (in series [1]; with Ribbon (Rib) full-length) was “binds” in each case.

B9: RpS27A (dsDNA)
DNA 1: TTCAACTTCCTGTCACGCTGTGTGTGTGTTCTTTCTTTCCTTTGATTCTG
DNA 2: CAGAATCAAAGGAAAGAAAGAACACACACACAGCGTGACAGGAAGTTGAA
With B9, the binding result (in series [1]; in the series with Ribbon (Rib) full-length) was “binds” each time.

B10: RpS17 (dsDNA)
DNA 1: ACACAACCACCCTGGTCACACGGCATCCTTCTTTTTCTTTCGTTTCCGGC
DNA 2: GCCGGAAACGAAAGAAAAAGAAGGATGCCGTGTGACCAGGGTGGTTGTGT
Take B10: the binding result (in series [1]; in the series with Ribbon (Rib) full-length) was “binds” in each case.

B11: RpL7A (dsDNA)
DNA 1: AACTGCCACTTCCTTTCTTTTTCGTTCCACGTTTCCGGTGAGTGCATGTG
DNA 2: CACATGCACTCACCGGAAACGTGGAACGAAAAAGAAAGGAAGTGGCAGTT
In the case of B11, the binding result (in series [1]; with Ribbon (Rib) full-length) was “binds” throughout.

B12: RpS17* (T to G in TC-rich motif) (dsDNA)
DNA 1: ACACAACCACCCTGGTCACACGGCATCCGGCGGGGGCGGGCGGGGCCGGC
DNA 2: GCCGGCCCCGCCCGCCCCCGCCGGATGCCGTGTGACCAGGGTGGTTGTGT
On to B12, for which the binding result (in series [1]; in the series with Ribbon (Rib) full-length) was “binds” throughout.

B13: P24.1 (dsDNA)
DNA 1: CCGATAGCATATACGTGGGTCCGCAGTGC
DNA 2: GCACTGCGGACCCACGTATATGCTATCGG
As for B13, the binding result in the series with CrebA full-length is given as “binds”.
